B1: Electrogenic sodium bicarbonate cotransporter 1 (Homo sapiens), Q9Y6R1-1 (parent)
chain: MEDEAVLDRGASFLKHVCDEEEVEGHHTIYIGVHVPKSYRRRRRHKRKTGHKEKKEKERISENYSDKSDIENADESSSSILKPLISPAAERIRFILGEEDDSPAPPQLFTELDELLAVDGQEMEWKETARWIKFEEKVEQGGERWSKPHVATLSLHSLFELRTCMEKGSIMLDREASSLPQLVEMIVDHQIETGLLKPELKDKVTYTLLRKHRHQTKKSNLRSLADIGKTVSSASRMFTNPDNGSPAMTHRNLTSSSLNDISDKPEKDQLKNKFMKKLPRDAEASNVLVGEVDFLDTPFIAFVRLQQAVMLGALTEVPVPTRFLFILLGPKGKAKSYHEIGRAIATLMSDEVFHDIAYKAKDRHDLIAGIDEFLDEVIVLPPGEWDPAIRIEPPKSLPSSDKRKNMYSGGENVQMNGDTPHDGGHGGGGHGDCEELQRTGRFCGGLIKDIKRKAPFFASDFYDALNIQALSAILFIYLATVTNAITFGGLLGDATDNMQGVLESFLGTAVSGAIFCLFAGQPLTILSSTGPVLVFERLLFNFSKDNNFDYLEFRLWIGLWSAFLCLILVATDASFLVQYFTRFTEEGFSSLISFIFIYDAFKKMIKLADYYPINSNFKVGYNTLFSCTCVPPDPANISISNDTTLAPEYLPTMSSTDMYHNTTFDWAFLSKKECSKYGGNLVGNNCNFVPDITLMSFILFLGTYTSSMALKKFKTSPYFPTTARKLISDFAIILSILIFCVIDALVGVDTPKLIVPSEFKPTSPNRGWFVPPFGENPWWVCLAAAIPALLVTILIFMDQQITAVIVNRKEHKLKKGAGYHLDLFWVAILMVICSLMALPWYVAATVISIAHIDSLKMETETSAPGEQPKFLGVREQRVTGTLVFILTGLSVFMAPILKFIPMPVLYGVFLYMGVASLNGVQFMDRLKLLLMPLKHQPDFIYLRHVPLRRVHLFTFLQVLCLALLWILKSTVAAIIFPVMILALVAVRKGMDYLFSQHDLSFLDDVIPEKDKKKKEDEKKKKKKKGSLDSDNDDSDCPYSEKVPSIKIPMDIMEQQPFLSDSKPSDRERSPTFLERHTSC
partner: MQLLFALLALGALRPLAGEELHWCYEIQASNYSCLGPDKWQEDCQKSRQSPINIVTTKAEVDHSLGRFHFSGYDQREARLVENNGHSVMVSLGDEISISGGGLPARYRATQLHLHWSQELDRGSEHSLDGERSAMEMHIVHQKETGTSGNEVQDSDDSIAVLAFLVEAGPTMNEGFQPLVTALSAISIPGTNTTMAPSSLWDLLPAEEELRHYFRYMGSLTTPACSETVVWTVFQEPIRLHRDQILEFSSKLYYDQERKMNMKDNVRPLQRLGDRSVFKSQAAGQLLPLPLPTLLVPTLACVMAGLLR

Variants of: B1
Conditions: with cah4_rabit CA4, P48283

| Variant | effect of a mutation on the interaction |
| --- | --- |
| G767T | disrupting interaction |

Source: IntAct's records for PubMed 14567693
